Biological target: RNA polymerase I (13-subunit complex) (Homo sapiens (HEK293T), UniProt O95602;Q9H9Y6;O15160;P0DPB6;Q9P1U0;Q3B726;Q9GZS1;O15446;P19388;P61218;P52434;P53 …)
Experiment: cryo-EM structure; open complex, inactive state, 3.3 A; RRN3 in sample but not bound in this class; downstream duplex traced, bubble not stably bound at active site; EM buffer: 15 mM HEPES pH 7.5, 80 mM (NH4)2SO4, 5 mM MgCl2, 10 mM DTT; scaffold annealed in 20 mM HEPES pH 7.5, 12 mM MgCl2, 100 mM NaCl, 10 mM DTT (1x, from printed 2x); complex incubation temperature not given
Conditions: protein: native; copies: 1;1;1;1;1;1;1;1;1;1;1;1;1; 43-bp duplex with 12-nt mismatch bubble, blunt

B1: Pol I OC scaffold (template/nontemplate DNA, no RNA) (dsDNA)
DNA 1: GTACTGAATTAGACAATGCTCTGTGGCTCTAGTACCATGAGCG
DNA 2: CGCTCATGGTACTAGGCTTCGGAGAAGTTGTCTAATTCAGTAC
binding result: binds

Reference: PMC8660638
